Measurements published in article PMC3996484, “Apoptosis Therapy in Cancer: The First Single-molecule Co-activating p53 and the Translocator Protein in Glioblastoma” (Scientific Reports, 2014).

Target: T1, recombinant human His-tagged p53 protein (residues 1-312) (human, UniProt P04637 1-312)
T1 construct: p53 tumor suppressor, human, residues 1-312; source: final buffer with 0.2 mM ZnCl2
Experiment: NMR titration; AIDA, 1D proton NMR of tryptophan side chain NH-epsilon signals of p53 alone and of the MDM2/p53 complex; 0.1 mM proteins, 20 mM TrisHCl, 150 mM KCl, pH 7.4, 5 mM beta-mercaptoethanol, 0.02% NaN3, 25°C, 700 MHz
Conditions: both partners purified

T1 sequence (P04637 1-312): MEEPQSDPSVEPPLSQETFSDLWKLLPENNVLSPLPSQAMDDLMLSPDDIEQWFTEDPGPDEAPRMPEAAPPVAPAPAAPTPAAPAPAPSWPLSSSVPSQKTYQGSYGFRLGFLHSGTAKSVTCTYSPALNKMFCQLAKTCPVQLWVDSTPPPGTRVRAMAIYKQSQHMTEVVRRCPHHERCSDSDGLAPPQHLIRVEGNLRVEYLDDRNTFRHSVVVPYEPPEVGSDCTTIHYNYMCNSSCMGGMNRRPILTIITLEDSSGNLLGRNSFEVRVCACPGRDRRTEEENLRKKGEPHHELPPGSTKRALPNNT

B1: recombinant human His-tagged N-terminal region of MDM2 (residues 1-118) (domain or fragment, UniProt Q00987 1-118, looked up)
chain: MCNTNMSVPTDGAVTTSQIPASEQETLVRPKPLLLKLLKSVGAQKDTYTMKEVLFYLGQYIMTKRLYDEKQQHIVYCSNDLLGDLFGVPSFSVKEHRKIYTMIYRNLVVVNQQESSDS
notes: MDM2 (murine double minute 2), human, N-terminal region, residues 1-118; Cloned in a derivative of the vector pET-46Ek/LIC (Novagen); also called murine double minute 2
B1: binds.
